Measured values as given in US20090239794A1, “HCV F PROTEIN AND USES THEREOF” (priority 2004, published 2009).

Legend:
[1] = target: Fmut8Δ11 protein (recombinant ARFP (hepatitis C virus subtype 1a (HCV-1a)) (UniProt P0C045)); experiment: ELISA Control 4: ARFP, no first antibody, secondary alone; row 1/100
[2] = target: Fmut8Δ11 protein (recombinant ARFP (hepatitis C virus subtype 1a (HCV-1a)) (UniProt P0C045)); experiment: ELISA Control 4: ARFP, no first antibody, secondary alone; row 1/800
[3] = target: Fmut8Δ11 protein (recombinant ARFP (hepatitis C virus subtype 1a (HCV-1a)) (UniProt P0C045)); experiment: ELISA Control 4: ARFP, no first antibody, secondary alone; row 1/200
[4] = target: Fmut8Δ11 protein (recombinant ARFP, truncated HCV-1a F protein lacking the first 11 N-terminal amino acids) (HCV-1a) (UniProt P0C045); experiment: ELISA Control 4: ARFP, no serum, secondary antibody alone; row 1/100
[5] = target: Fmut8Δ11 protein (recombinant ARFP (hepatitis C virus subtype 1a (HCV-1a)) (UniProt P0C045)); experiment: ELISA Control 4: ARFP, no first antibody, secondary alone; row 1/400
[6] = target: Fmut8Δ11 protein (recombinant ARFP, truncated HCV-1a F protein lacking the first 11 N-terminal amino acids) (HCV-1a) (UniProt P0C045); experiment: ELISA Control 4: ARFP, no serum, secondary antibody alone; row 1/1600
[7] = target: Fmut8Δ11 protein (recombinant ARFP (hepatitis C virus subtype 1a (HCV-1a)) (UniProt P0C045)); experiment: ELISA Control 4: ARFP, no first antibody, secondary alone; row 1/50
[8] = target: Fmut8Δ11 protein (recombinant ARFP, truncated HCV-1a F protein lacking the first 11 N-terminal amino acids) (HCV-1a) (UniProt P0C045); experiment: ELISA Control 4: ARFP, no serum, secondary antibody alone; row 1/400
[9] = target: Fmut8Δ11 protein (recombinant ARFP, truncated HCV-1a F protein lacking the first 11 N-terminal amino acids) (HCV-1a) (UniProt P0C045); experiment: ELISA Control 4: ARFP, no serum, secondary antibody alone; row 1/50
[10] = target: Fmut8Δ11 protein (recombinant ARFP, truncated HCV-1a F protein lacking the first 11 N-terminal amino acids) (HCV-1a) (UniProt P0C045); experiment: ELISA Control 4: ARFP, no serum, secondary antibody alone; row 1/200
[11] = target: Fmut8Δ11 protein (recombinant ARFP, truncated HCV-1a F protein lacking the first 11 N-terminal amino acids) (HCV-1a) (UniProt P0C045); experiment: ELISA Control 4: ARFP, no serum, secondary antibody alone; row 1/800
[12] = target: Fmut8Δ11 protein (recombinant ARFP (hepatitis C virus subtype 1a (HCV-1a)) (UniProt P0C045)); experiment: ELISA Control 4: ARFP, no first antibody, secondary alone; row 1/1600

## AP conjugated goat anti-mouse Ig [G, A, M] (antibody)
[1]
  OD410: 0.127 OD410
[2]
  OD410: 0.109 OD410
[3]
  OD410: 0.106 OD410
[4]
  OD410: 0.129
[5]
  OD410: 0.11 OD410
[6]
  OD410: 0.111
[7]
  OD410: 0.194 OD410
[8]
  OD410: 0.111
[9]
  OD410: 0.131
[10]
  OD410: 0.108
[11]
  OD410: 0.112
[12]
  OD410: 0.109 OD410
